The text below walks through data of article PMC5758903.

Data set [1] concerns the target T1, HisTag-PCNA (human, UniProt P12004 1-261). The experiment in a line: pull-down.
For data set [2], the target named is PCNA (tag-free);DNA polymerase delta (human;human, UniProt P12004;P28340;P49005;Q15054;Q9HCU8 1-261;1-1107;1-469;1-466;1-107, |). The experiment in a line: EMSA. On the technique in general: A gel shift assay detects complexes by their altered migration in electrophoresis.
Data set [3] has as its target DNA polymerase delta (human, UniProt P28340;P49005;Q15054;Q9HCU8 1-1107;1-469;1-466;1-107). The experiment in a line: EMSA.
Data set [4] has as its target T1, HisTag-PCNA. The experiment in a line: ITC. Background: In ITC the heat of successive injections is recorded.
Data set [5] concerns the target T1, HisTag-PCNA. Put plainly: pull-down titration.

T1 sequence (P12004 whole entry): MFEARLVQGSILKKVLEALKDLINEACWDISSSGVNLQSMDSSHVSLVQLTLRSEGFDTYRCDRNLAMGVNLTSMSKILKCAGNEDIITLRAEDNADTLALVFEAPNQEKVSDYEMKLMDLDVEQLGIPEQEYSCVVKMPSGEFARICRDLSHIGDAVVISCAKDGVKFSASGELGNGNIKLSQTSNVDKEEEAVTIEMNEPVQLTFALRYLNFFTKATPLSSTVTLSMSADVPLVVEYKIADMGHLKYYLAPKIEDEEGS
Sequence of DNA polymerase delta (P28340 whole entry, stated change not applied, chain 1 of 4): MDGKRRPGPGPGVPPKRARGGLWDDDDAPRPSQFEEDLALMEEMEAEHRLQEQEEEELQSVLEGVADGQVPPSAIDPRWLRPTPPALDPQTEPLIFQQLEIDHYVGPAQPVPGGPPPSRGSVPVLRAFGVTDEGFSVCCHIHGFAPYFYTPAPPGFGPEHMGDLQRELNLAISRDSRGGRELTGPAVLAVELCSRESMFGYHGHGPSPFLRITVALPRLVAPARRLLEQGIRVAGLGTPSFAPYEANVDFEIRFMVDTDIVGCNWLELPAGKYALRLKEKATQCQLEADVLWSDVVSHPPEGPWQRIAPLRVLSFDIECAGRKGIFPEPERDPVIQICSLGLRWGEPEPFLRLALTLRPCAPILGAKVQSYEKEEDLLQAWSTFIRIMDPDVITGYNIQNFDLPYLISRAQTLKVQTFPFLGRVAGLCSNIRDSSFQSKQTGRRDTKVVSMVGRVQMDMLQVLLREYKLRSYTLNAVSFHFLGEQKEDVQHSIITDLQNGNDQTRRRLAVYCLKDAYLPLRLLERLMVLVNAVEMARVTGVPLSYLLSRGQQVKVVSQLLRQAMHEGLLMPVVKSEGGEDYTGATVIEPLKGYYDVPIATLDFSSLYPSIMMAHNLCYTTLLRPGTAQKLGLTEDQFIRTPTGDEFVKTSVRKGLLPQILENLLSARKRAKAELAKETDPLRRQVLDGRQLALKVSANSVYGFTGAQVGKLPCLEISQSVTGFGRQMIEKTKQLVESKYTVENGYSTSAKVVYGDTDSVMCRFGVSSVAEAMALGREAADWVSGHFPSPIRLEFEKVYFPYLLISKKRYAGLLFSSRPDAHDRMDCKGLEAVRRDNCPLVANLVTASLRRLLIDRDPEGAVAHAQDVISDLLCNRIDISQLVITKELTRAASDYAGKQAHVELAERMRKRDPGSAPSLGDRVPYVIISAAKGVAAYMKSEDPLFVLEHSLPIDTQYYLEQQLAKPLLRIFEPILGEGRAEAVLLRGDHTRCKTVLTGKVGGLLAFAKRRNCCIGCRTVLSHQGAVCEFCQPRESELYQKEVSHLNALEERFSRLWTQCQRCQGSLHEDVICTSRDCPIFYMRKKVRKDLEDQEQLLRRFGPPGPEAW
Sequence of DNA polymerase delta (P49005 whole entry, stated change not applied, chain 2 of 4): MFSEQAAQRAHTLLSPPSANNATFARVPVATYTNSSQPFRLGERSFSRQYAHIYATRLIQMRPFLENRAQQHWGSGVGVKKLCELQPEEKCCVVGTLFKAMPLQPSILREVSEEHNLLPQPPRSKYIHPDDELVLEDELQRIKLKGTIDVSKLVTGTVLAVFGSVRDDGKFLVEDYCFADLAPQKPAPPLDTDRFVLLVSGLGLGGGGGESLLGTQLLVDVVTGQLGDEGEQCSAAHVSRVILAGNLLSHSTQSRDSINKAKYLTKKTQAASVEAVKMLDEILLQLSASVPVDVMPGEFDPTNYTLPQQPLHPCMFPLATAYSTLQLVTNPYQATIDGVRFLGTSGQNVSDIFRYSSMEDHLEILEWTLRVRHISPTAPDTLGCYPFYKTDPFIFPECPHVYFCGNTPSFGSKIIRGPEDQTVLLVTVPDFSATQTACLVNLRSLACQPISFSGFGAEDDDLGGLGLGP
Sequence of DNA polymerase delta (Q15054 whole entry, stated change not applied, chain 3 of 4): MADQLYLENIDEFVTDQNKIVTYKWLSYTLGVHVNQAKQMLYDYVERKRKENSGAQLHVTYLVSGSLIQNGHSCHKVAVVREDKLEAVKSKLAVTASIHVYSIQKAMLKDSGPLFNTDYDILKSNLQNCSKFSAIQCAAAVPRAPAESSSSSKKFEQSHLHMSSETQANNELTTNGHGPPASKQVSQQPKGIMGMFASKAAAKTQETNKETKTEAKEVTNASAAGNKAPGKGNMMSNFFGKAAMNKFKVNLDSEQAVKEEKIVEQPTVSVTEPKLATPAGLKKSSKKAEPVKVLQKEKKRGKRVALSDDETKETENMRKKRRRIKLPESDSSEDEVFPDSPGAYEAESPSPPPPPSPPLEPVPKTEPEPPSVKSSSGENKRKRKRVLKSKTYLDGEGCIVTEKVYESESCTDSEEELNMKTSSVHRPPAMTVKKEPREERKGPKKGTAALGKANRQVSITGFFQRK
Sequence of DNA polymerase delta (Q9HCU8 whole entry, stated change not applied, chain 4 of 4): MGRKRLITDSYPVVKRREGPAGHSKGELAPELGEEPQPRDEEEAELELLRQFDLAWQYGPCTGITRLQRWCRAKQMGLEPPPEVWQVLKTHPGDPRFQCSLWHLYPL

For CATGCTTCCCCAGGGAGATGCCTATGGTCCCCGCGTAGG (structured_DNA) [A1 -40/3'], in data set [1], the binding result is “no binding”.

B1: Ref aptamer (ssDNA)
DNA: ACTGACTGACTGACTGACTGACTGACTGACTGACTGACTGACTGACTGACTGACTGACTGACTGACTGACTGACTGACT
For B1, the binding result in data set [1] is “no binding”.

B2: A1 -20/5' (structured_DNA)
DNA: CCTATGGTCCCCGCGTAGGTGGCAGCTCAAACCCGATTCGAGGAACATGCGTCGCAAAC
Turning to B2, in data set [1], the binding result is “no binding”.

As a reminder, the Kd is a measure of binding affinity in units of concentration. Low values mean a tighter complex, high ones a looser complex. Consider CATGCTTCCCCAGGGAGATGCCTATGGTCCCCGCGTAGGTGGCAGCTCA (structured_DNA) [alpha-PCNA aptamer (A1 -30/3')], for which the binding result in data set [2] is listed as “binds”; in data set [3], “no binding”. Further, the values for the Kd in data set [4] and in data set [5] were 2 ± 0.64 µM and 5.1 ± 0.59 µM, respectively.
